In article doi:10.1101/2021.07.16.452612:
pKd: −log10 of the molar value.

Molecular target: Recombinant wild-type mouse talin1 fragment R11 (residues 1,974–2,140) (mouse) (UniProt P26039)
Assay: ITC

UniProt P26039, sequence (P26039 1974-2140): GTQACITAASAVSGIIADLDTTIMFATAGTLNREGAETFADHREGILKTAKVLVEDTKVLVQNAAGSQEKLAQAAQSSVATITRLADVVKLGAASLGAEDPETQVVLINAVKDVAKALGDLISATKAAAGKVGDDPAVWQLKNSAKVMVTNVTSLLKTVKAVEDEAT

tensin3 H1 peptide (from UniProt Q68CZ2 692-712)
pKd: 4.77
dH: 4.8 kcal/mol
